We go through seven molecules from US20190111150A1 (AbbVie / Abbott, published 2019).

Experiment [1] addresses T1, recombinant human CD71 extracellular domain (human, UniProt P02786 89-760).
T1 construct: extracellular domain; Treated as one molecule; also called rhCD71; human CD71 ECD
Description: ELISA on coated recombinant human CD71 ECD (rhCD71); Kapp. (ELISA stands for enzyme-linked immunosorbent assay.)
Description: (§1) In the ELISA examples, recombinant cynomolgus or human CD71 ECD proteins were coated on ELISA plates, and then incubated with one of a range of concentrations of the test articles of the present disclosure, followed by measurement of the amount of bound test article with a secondary antibody.

The target in experiment [2] is T2, recombinant cynomolgus monkey CD71 extracellular domain (cynomolgus monkey, UniProt H9EXL1 89-760 (rhesus entry)).
T2 construct: extracellular domain; also called rcCD71; monkey recombinant CD71
The experiment is described as follows: ELISA on coated recombinant cynomolgus CD71 ECD (rcCD71); Kapp.
Description: as §1

For experiment [3], the target named is T3, cynomolgus monkey CD71 on cells (cynomolgus monkey, UniProt H9EXL1 1-760 (rhesus entry)).
T3 construct: whole, on cells; also called cell-surface cynomolgus CD71; CHO w/ Cynomolgus CD71
The experiment is described as follows: flow cytometry on CHO-K1 cells expressing cynomolgus CD71; Kapp.
Description: (§2) The flow cytometry results reflect the average measured Kapp from four human cell lines (HCC1806 human breast cancer, HT-29 human colorectal cancer, NCI-H292 human lung cancer, and NCI-H520 human lung cancer) and one CHO-K1 cell line expressing cynomolgus monkey CD71.

The target in experiment [4] is T1, recombinant human CD71 extracellular …. Description: ELISA, recombinant human CD71 (R&D Systems) coated at 1 ug/mL; Kd(app).
Description: (§3) The amount of bound antibody in each sample was detected by incubation and detection by goat anti-human antibody conjugated to horseradish peroxidase and Ultra TMB (Thermo Fisher Scientific) detection.
The target in experiment [5] is T2, recombinant cynomolgus monkey CD71 …. Description: ELISA, recombinant cynomolgus CD71 (R&D Systems) coated at 1 ug/mL; Kd(app).
Description: as §3
For experiment [6], the target named is T4, human CD71 on the surface of human cell lines (human, UniProt P02786 1-760).
T4 construct: whole, on cells; also called cell-surface human CD71; CD71 on BxPC3, NCI-H292, HCC1806, HT-29, NCI-H520 cells
The experiment is described as follows: flow cytometry, average of 4 human cell lines (HCC1806, HT-29, NCI-H292, NCI-H520); Kapp. On the technique in general: Flow cytometry measures light scatter and fluorescence of single cells or particles in a stream.
Description: as §2

In experiment [7] the target is T2, recombinant cynomolgus monkey CD71 …. The experiment is described as follows: ELISA on plate-coated recombinant cynomolgus CD71 (1 µg/mL), goat anti-human HRP, TMB, Abs 450.
Description: as §3
Another experiment concerns the target T5, recombinant mouse CD71 (mouse, UniProt Q62351 89-763).
T5 construct: extracellular domain; also called mouse CD71 ECD
The experiment is described as follows: ELISA on recombinant mouse CD71 (ECD).

In experiment [8] the target is T4, human CD71 on the surface of human cell …. The experiment is described as follows: FACS on NCI H292 cells; apparent Kd (Kapp).
Experiment [9] addresses T6, rat CD71 on rat H-4-II-E hepatoma cells (rat, UniProt Q99376 1-761).
T6 construct: whole, on cells; also called rat CD71-expressing cell line
The experiment is described as follows: flow cytometry on rat H-4-II-E hepatoma cells.

In experiment [10] the target is T1, recombinant human CD71 extracellular …. The experiment is described as follows: ELISA on recombinant CD71 ECD; apparent Kd (Kapp).
Experiment [11] has as its target T2, recombinant cynomolgus monkey CD71 …. Description: ELISA on recombinant CD71 ECD; apparent Kd (Kapp).
Experiment [12] has as its target T4, human CD71 on the surface of human cell …. Description: flow cytometry on human BxPC3 cells; apparent Kd (Kapp).
Experiment [13] concerns the target T3, cynomolgus monkey CD71 on cells. Description: flow cytometry on cynomolgus monkey primary kidney epithelial cells; apparent Kd (Kapp).
Experiment [14] concerns the target T4, human CD71 on the surface of human cell …. The experiment is described as follows: FACS on cells.
In experiment [15] the target is T2, recombinant cynomolgus monkey CD71 …. Description: ratio of Kapp; ELISA on rcCD71.
Description: as §1
Experiment [16] concerns the target T1, recombinant human CD71 extracellular …. Description: ratio of Kapp; ELISA on rhCD71.
Description: as §1
The target of experiment [17] is T3, cynomolgus monkey CD71 on cells. Description: ratio of Kapp; flow cytometry on CHO-K1 cyno CD71.
Description: as §2
The target in experiment [18] is T7, recombinant human FcγRIIIa F158 (human, UniProt P08637 17-208).
T7 construct: also called huFcγRIIIa F158
Description: SPR (Biacore), FcγR captured via 6xHis tag, 1:1 binding fit. (In general: In SPR one partner is held on a chip, and binding of the other changes the refractive index at the surface.)
Description: (§4) Mouse anti-6×His antibodies were directly immobilized on a CMS chip by amine coupling according to manufacturer's protocol to the density of 10000 RU. Human FcγRs were then captured on Flow Cells 2, 3 and 4 to achieve capture level of the FcγRs of 250-500 RU. Flow Cell 1 was used as a reference surface. HBS-EP+ buffer (GE, Healthcare) was used as the running buffer. […] The chip surfaces were regenerated with an injection of 100 mM HCl at a flow rate of 100 μL/minute for two seconds over all four flow cells. Three experiments with the use of three different CMS chips were run for each sample (each in duplicate) to accommodate all types of experimental error (instrument, surface and operator). The results of these three experiments were averaged.
(§5) All recombinant human FcγRIIIa V158 data and FcγRIIIa F158 data were fitted to 1:1 binding fit model with Rmax fixed local to account for variability in capture levels. Recombinant human FcγRIIb, FcγRIIa H131, and FcRn binding data were fitted to a steady state affinity model. Biacore T200 Evaluation Software Version 2.0 was used to fit all the data.

The target of experiment [19] is T8, recombinant human FcγRIIIa V158 (human, UniProt P08637 17-208).
T8 construct: also called huFcγRIIIa V158
The description is as above.
Description: as §4, §5

The target in experiment [20] is T4, human CD71 on the surface of human cell …. The experiment is described as follows: ratio of Kapp; flow cytometry, average of 4 human cell lines.
Description: as §2
The target of experiment [21] is T9, recombinant human FcγRIIa H131 (human, UniProt P12318 36-218, limits assumed).
T9 construct: also called huFcγRIIa H131; FcγIIa H131
T9 sequence (looked up): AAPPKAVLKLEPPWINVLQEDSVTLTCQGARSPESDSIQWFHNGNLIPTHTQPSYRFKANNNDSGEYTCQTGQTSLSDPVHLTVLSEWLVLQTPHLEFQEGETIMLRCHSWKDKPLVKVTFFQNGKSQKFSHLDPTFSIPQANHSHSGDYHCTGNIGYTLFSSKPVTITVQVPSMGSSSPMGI
The experiment is described as follows: SPR (Biacore), FcγR captured via 6xHis tag, steady state affinity model.
Description: as §4, §5

Another experiment addresses T10, human FcRn (human, UniProt P55899 24-297; P61769 21-119).
T10 construct: also called Hu FcRn; neonatal Fc receptor
The experiment is described as follows: SPR (Biacore), antibody immobilized, FcRn injected, pH 6.0, steady state affinity model; FcRn at pH 6.0.

In experiment [22] the target is T3, cynomolgus monkey CD71 on cells. The experiment is described as follows: flow cytometry on CHO cells expressing cynomolgus CD71, Alexa Fluor 647 goat anti-human IgG (MFI).
Another experiment concerns the target human FcγRI (human, UniProt P12314 16-288, limits assumed). Description: FcγRI competition binding ELISA (results not shown).

Numbering of substitutions follows the chain as printed.

T2 sequence (chain, as listed by the source): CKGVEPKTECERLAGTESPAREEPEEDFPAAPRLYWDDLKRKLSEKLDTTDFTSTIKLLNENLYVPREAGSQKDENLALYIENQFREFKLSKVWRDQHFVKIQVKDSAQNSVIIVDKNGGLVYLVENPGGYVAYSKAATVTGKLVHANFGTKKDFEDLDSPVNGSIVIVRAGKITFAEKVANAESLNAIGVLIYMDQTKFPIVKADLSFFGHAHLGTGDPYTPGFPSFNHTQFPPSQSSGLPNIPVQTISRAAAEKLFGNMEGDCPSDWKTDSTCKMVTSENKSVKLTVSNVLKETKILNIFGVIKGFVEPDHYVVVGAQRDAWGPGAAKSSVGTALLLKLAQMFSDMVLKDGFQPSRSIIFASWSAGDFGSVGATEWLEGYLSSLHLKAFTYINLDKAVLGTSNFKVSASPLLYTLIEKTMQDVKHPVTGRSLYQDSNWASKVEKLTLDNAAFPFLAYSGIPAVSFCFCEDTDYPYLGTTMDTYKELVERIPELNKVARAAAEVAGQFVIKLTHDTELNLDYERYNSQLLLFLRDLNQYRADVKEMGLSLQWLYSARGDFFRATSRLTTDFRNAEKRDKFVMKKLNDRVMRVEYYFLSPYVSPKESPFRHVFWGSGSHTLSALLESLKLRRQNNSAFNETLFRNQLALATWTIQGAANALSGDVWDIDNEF
T3 sequence (chain, as listed by the source): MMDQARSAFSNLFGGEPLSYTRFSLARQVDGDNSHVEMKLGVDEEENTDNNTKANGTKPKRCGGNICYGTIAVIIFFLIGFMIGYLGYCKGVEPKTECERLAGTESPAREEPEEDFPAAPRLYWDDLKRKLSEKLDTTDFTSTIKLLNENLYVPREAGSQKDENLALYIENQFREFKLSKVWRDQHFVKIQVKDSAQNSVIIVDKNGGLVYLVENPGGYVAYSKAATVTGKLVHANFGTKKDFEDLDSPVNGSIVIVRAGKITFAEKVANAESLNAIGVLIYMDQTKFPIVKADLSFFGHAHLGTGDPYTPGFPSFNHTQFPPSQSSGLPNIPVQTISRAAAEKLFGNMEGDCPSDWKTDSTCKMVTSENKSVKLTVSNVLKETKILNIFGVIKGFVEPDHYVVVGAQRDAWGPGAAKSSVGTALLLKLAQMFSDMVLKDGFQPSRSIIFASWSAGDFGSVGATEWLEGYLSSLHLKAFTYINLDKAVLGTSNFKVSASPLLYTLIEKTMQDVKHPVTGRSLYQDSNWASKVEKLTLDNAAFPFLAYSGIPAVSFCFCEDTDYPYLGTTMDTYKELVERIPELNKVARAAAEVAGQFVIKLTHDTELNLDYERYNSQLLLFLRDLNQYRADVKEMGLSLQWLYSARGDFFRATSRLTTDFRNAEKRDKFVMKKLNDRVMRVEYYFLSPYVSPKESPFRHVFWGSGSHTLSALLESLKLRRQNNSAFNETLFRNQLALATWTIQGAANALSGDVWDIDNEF
T1 sequence (P02786 89-760): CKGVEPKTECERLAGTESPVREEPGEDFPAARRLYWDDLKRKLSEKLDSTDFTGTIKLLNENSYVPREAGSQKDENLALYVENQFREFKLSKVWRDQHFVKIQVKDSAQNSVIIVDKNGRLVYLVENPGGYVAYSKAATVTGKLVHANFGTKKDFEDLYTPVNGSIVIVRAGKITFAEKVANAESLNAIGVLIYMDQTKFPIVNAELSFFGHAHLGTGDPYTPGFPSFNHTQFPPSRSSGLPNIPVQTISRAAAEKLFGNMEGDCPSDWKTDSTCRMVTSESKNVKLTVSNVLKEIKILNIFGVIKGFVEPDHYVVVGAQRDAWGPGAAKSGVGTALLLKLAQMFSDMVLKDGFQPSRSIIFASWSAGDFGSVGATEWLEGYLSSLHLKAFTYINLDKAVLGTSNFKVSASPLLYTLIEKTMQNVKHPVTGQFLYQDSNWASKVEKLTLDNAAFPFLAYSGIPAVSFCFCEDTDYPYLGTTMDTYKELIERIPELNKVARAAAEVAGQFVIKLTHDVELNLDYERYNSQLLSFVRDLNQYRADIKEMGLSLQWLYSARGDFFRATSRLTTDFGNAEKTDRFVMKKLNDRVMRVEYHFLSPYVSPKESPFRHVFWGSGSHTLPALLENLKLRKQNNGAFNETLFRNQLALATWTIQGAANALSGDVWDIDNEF
T4 sequence (P02786 whole entry): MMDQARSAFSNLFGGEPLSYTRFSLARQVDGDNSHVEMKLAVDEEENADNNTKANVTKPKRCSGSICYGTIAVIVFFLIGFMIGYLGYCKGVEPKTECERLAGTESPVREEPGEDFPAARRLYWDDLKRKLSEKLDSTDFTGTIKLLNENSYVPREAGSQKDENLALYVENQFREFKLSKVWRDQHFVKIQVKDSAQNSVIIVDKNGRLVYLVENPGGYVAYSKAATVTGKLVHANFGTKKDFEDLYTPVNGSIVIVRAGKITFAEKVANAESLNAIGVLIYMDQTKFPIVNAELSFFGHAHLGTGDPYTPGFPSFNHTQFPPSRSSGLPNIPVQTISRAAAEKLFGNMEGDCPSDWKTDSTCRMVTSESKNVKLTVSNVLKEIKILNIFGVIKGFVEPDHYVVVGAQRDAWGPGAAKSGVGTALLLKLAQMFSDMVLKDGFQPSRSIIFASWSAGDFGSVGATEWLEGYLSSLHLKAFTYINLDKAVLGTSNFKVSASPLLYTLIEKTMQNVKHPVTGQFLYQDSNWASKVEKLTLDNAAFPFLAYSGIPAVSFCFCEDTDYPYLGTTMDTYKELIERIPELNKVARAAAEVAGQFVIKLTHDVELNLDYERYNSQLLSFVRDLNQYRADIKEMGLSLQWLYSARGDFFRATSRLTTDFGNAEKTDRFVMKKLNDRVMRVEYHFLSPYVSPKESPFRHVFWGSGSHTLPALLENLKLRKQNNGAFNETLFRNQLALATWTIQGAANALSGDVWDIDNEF
T7 sequence (P08637 17-208 limits assumed): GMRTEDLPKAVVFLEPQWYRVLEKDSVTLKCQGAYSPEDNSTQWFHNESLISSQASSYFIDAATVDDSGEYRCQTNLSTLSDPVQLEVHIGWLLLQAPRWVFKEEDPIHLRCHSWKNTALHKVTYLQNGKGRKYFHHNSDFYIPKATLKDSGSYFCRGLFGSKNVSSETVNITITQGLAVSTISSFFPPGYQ
T10 sequence (P55899 24-297 limits assumed, form in doubt, chain 1 of 2): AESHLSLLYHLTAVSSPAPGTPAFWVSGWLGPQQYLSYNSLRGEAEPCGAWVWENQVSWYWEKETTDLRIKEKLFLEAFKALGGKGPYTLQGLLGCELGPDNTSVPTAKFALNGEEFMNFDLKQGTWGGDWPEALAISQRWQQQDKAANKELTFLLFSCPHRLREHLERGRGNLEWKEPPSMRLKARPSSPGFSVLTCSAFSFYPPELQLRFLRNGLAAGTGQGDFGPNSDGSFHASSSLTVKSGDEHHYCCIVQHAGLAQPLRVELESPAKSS
T10 sequence (P61769 21-119 limits assumed, form in doubt, chain 2 of 2): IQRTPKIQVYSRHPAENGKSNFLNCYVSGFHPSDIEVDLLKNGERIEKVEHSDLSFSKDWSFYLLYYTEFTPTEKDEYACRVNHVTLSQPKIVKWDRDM
T8 sequence (P08637 17-208 F176V): as the sequence (P08637 17-208 limits assumed) above, with F160V counted along it
Sequence of human FcγRI (P12314 16-288 limits assumed): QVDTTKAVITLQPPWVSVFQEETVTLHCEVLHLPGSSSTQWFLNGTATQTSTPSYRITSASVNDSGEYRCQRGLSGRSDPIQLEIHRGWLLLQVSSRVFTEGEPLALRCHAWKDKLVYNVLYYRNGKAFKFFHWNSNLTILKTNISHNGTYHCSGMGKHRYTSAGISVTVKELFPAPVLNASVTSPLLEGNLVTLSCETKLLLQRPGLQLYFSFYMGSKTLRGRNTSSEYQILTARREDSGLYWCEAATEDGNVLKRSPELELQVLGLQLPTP
T6 sequence (Q99376 whole entry): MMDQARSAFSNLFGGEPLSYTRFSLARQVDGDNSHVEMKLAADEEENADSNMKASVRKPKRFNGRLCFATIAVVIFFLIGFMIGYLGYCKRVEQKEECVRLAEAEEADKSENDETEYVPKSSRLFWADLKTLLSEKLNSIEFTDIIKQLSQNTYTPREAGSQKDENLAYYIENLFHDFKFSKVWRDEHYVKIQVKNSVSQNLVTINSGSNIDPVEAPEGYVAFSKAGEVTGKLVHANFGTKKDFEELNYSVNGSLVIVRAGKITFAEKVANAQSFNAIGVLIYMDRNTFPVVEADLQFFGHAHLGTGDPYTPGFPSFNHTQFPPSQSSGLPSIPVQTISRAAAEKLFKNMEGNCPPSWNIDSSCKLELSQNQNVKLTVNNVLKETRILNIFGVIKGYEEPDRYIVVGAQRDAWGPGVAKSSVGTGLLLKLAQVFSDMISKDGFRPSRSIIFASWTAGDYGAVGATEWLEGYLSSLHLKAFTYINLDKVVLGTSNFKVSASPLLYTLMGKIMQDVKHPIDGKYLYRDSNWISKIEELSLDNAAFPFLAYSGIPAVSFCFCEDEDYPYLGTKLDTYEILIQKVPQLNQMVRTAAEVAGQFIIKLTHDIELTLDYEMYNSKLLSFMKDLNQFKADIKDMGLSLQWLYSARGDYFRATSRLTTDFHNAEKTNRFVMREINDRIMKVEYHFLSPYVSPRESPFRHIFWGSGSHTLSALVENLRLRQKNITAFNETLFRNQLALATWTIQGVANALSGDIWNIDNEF
Description for human FcRn: The surfaces were regenerated with an injection of 100 mM HCl for two seconds followed by HBS-EP+, pH 7.4. Samples were prepared and run in two running buffer systems, MES-EP+ pH 6.0 and HBS-EP pH 7.4. Three experiments with the use of three different CMS chips were run for each sample (each in duplicate) to account for instrument, surface and operator error. The results of these three experiments were averaged.
as §5

B1: anti-CD71-TF02.13-2011, protease-activated (cleaved) (antibody, not shown: small tags and cut ends)
heavy: not shown
light: DIQMTQSPSSLSASVGDRVTITCSASSSVYYMYWFQQKPGKAPKLWIYSTSNLASGVPSRFSGSGSGTDYTLTISSMQPEDFATYYCQQRRNYPYTFGQGTKLEIKRTVAAPSVFIFPPSDEQLKSGTASVVCLLNNFYPREAKVQWKVDNALQSGNSQESVTEQDSKDSTYSLSSTLTLSKADYEKHKVYACEVTHQGLSSPVTKSFNRGEC
notes: the mask is released
For B1, the Kd in experiment [1] came to 0.06 nM; in experiment [2] it was 0.04 nM; in experiment [3], 0.5 nM; in experiment [4], 0.04 nM; in [5] it was 0.06 nM; in [6] it was 2 nM. Besides, the EC50 (read off the curve) (usually the concentration needed to bring the measured effect to its halfway point) in experiment [7] was approximately 0.06 nM.

B2: anti-CD71-TF02.13-2011-vcMMAE E2, protease-activated (cleaved) (antibody, not shown: small tags and cut ends)
heavy: not shown
light: B1 light
modifications: vc-MMAE on interchain cysteine thiols; drug load 2 per antibody; chain and positions not stated
notes: m14 after protease treatment; the mask is released
On to B2, for which the Kd in experiment [1] was found to be 0.05 nM; in [2], 0.04 nM; in experiment [3] it was 0.7 nM; in experiment [4], 0.05 nM; in experiment [5], 0.07 nM; in [6] it was 2 nM. For the same molecule, in experiment [7], the “EC50 (read off the curve)” value was approximately 0.07 nM.

B3: anti-CD71 Ab21.12 LcB:HcC antibody (antibody, V domains shown)
VH: QVQLVQSGAEVKKPGASVKMSCKASGYTFTSYWMHWVRQAPGQGLEWIGAIYPGNSETGYAQKFQGRATLTADTSTSTAYMELSSLRSEDTAVYYCTRENWDPGFAFWGQGTLITVSS
VL: DIQMTQSPSSLSASVGDRVTITCSASSSVYYMYWFQQKPGKAPKLWIYSTSNLASGVPSRFSGSGSGTDYTLTISSMQPEDFATYYCQQRRNYPYTFGQGTKLEIK
notes: Humanized; also called huCD71 21.12 Ab; anti-CD71 21.12 antibody
For the molecule B3, the binding result (in the experiment with recombinant mouse CD71; in experiment [9]) was “no binding” each time. The Kd came to 2.29 nM in [8]; 0.3 nM in experiment [10]; 0.4 nM in [11]; 3 nM in [12]; 0.03 nM in experiment [1]; 0.03 nM in experiment [2]. Moreover, the Kd in experiment [3] was found to be 0.3 nM; in [13] it was 3 nM; in experiment [6], 0.8 nM.

B4: conjugated antibody anti-CD71 Ab21.12-vcMMAE E2 (antibody, V domains shown)
VH: B3 VH
VL: B3 VL
modifications: vc-MMAE conjugated; DAR about 2 (E2); positions not given
notes: Unmasked antibody drug conjugate of Ab21.12
Turning to B4, the Kd in experiment [1] stood at 0.04 nM; in experiment [2], 0.03 nM.

B5: humanized anti-CD71 antibody Ab21.10 LcB:HcA (antibody, V domains shown)
VH: B3 VH with M20V, I48M, A68V, L70M, A72R, A79V, T97A, I114V
VL: B3 VL
notes: Detected with anti-human IgG
As to B5, the binding result in experiment [14] was “binds”.

B6: anti-CD71 activatable antibody anti-CD71-TF02.13-2011, intact (uncleaved) (antibody, human IgG1, kappa)
heavy: not shown
light: NLCTEHSAALDCRSYGGGSSGGSISSGLLSGRSDNPGGGSDIQMTQSPSSLSASVGDRVTITCSASSSVYYMYWFQQKPGKAPKLWIYSTSNLASGVPSRFSGSGSGTDYTLTISSMQPEDFATYYCQQRRNYPYTFGQGTKLEIKRTVAAPSVFIFPPSDEQLKSGTASVVCLLNNFYPREAKVQWKVDNALQSGNSQESVTEQDSKDSTYSLSSTLTLSKADYEKHKVYACEVTHQGLSSPVTKSFNRGEC
notes: copies: 2 + 2
As to B6, the “Ratio anti-CD71-TF02.13-2011/Ab21.12” value in experiment [15] was found to be 37; in [16] it was 65; in experiment [17] it was 93; in experiment [20] it was 127. The “Ratio anti-CD71-TF02.13-2011/anti-CD71-TF02.13-2011, matriptase activated” value in [15] was 28; in [16], 32; in [17], 56; in experiment [20], 55. Besides, the Kd in experiment [1] is 1.94 nM; in [18], 1800 nM; in experiment [19], 180 nM; in experiment [2], 1.11 nM; in [3] it was 28 nM; in experiment [4], 0.42 nM. In addition, the Kd in experiment [21] is 4700 nM; in experiment [5], 1.24 nM; in experiment [6], 106 nM; with human FcRn it was 4700 nM. The “EC50 (read off the curve)” value in experiment [7] was approximately 1 nM; in [22] it was approximately 30 nM.

B7: anti-CD71 conjugated activatable antibody anti-CD71-TF02.13-2011-vcMMAE E2, intact (uncleaved) (antibody, human IgG1, kappa)
heavy: not shown
light: B6 light
modifications: vc-MMAE (maleimide caproyl-valine-citrulline linker with monomethyl auristatin E) on interchain cysteine thiols after partial TCEP reduction; drug load 2 per activatable antibody; chain and positions not stated
notes: E2 = enriched for drug load 2 (DAR about 2); also called AADC; copies: 2 + 2
For the molecule B7, the binding result in the experiment with human FcγRI was “binds”. Also, the Kd in [1] came out at 2.58 nM; in experiment [18], 2100 nM; in [2] it was 1.02 nM; in experiment [3], 35 nM; in experiment [4], 0.48 nM; in experiment [21] it was 6200 nM. Moreover, the results for the Kd (in experiment [5]; in experiment [6]; in the experiment with human FcRn) were 1.49 nM, 98.1 nM and 5300 nM, respectively. Further, the “EC50 (read off the curve)” value was approximately 1 nM in experiment [7] and approximately 30 nM in experiment [22].
